Measured values reported in article PMC4434323.

What follows are sequences tested against T1, nhr-42 (C33G8.6) (Caenorhabditis elegans) (UniProt O76828).
T1 sequence: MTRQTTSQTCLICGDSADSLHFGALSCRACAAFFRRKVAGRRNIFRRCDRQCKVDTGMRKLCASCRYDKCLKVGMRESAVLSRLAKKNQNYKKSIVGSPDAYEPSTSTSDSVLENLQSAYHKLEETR

Question: For “ACACTACG (double strand) [8-mer ACACTACG]”, which binding signal (PBM E-score (-0.5 to 0.5)) is on record?
Answer: The binding signal (PBM E-score (-0.5 to 0.5)) was 0.493.

Question: “ACTACGAA (double strand) [8-mer ACTACGAA]” was tested. Which binding signal (PBM E-score (-0.5 to 0.5)) did it give?
Answer: The binding signal (PBM E-score (-0.5 to 0.5)) was 0.486.

Question: Which binding signal (PBM E-score (-0.5 to 0.5)) does the source give for “ACTACGAT (double strand) [8-mer ACTACGAT]” here?
Answer: The binding signal (PBM E-score (-0.5 to 0.5)) was 0.482.

Question: “AGACTACG (double strand) [8-mer AGACTACG]” was tested. Which binding signal (PBM E-score (-0.5 to 0.5)) did it give?
Answer: The binding signal (PBM E-score (-0.5 to 0.5)) was 0.492.

Question: For “AGTCACAT (double strand) [8-mer AGTCACAT]”, which binding signal (PBM E-score (-0.5 to 0.5)) is on record?
Answer: The binding signal (PBM E-score (-0.5 to 0.5)) was 0.481.

Question: “CACTACGA (double strand) [8-mer CACTACGA]” was tested. Which binding signal (PBM E-score (-0.5 to 0.5)) did it give?
Answer: The binding signal (PBM E-score (-0.5 to 0.5)) was 0.485.

Question: For “CGTAGTCA (double strand) [8-mer CGTAGTCA]”, which binding signal (PBM E-score (-0.5 to 0.5)) is on record?
Answer: The binding signal (PBM E-score (-0.5 to 0.5)) was 0.48.

Question: “GACTACGA (double strand) [8-mer GACTACGA]” was tested. Which binding signal (PBM E-score (-0.5 to 0.5)) did it give?
Answer: Its binding signal (PBM E-score (-0.5 to 0.5)) is 0.487.

Question: For “GACTACGC (double strand) [8-mer GACTACGC]”, which binding signal (PBM E-score (-0.5 to 0.5)) is on record?
Answer: The binding signal (PBM E-score (-0.5 to 0.5)) was 0.484.

These sequences were tested against T2, T07C12.11 (T07C12.11) (Caenorhabditis elegans) (UniProt G5EGG9).
T2 sequence: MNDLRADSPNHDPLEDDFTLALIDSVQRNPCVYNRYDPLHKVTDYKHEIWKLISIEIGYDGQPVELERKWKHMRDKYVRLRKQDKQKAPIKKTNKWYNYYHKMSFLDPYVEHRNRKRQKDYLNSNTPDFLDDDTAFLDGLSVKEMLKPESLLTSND

Question: Which binding signal (PBM E-score (-0.5 to 0.5)) does the source give for “ACGTAAGA (double strand) [8-mer ACGTAAGA]” here?
Answer: Its binding signal (PBM E-score (-0.5 to 0.5)) is 0.486.

Question: “ACGTAAGC (double strand) [8-mer ACGTAAGC]” was tested. Which binding signal (PBM E-score (-0.5 to 0.5)) did it give?
Answer: The binding signal (PBM E-score (-0.5 to 0.5)) was 0.487.

Question: With “ACGTAAGG (double strand) [8-mer ACGTAAGG]” as the sequence, how does the binding signal (PBM E-score (-0.5 to 0.5)) read?
Answer: The binding signal (PBM E-score (-0.5 to 0.5)) was 0.488.

Question: For “ATACGTAA (double strand) [8-mer ATACGTAA]”, which binding signal (PBM E-score (-0.5 to 0.5)) is on record?
Answer: Its binding signal (PBM E-score (-0.5 to 0.5)) is 0.491.

Question: Which binding signal (PBM E-score (-0.5 to 0.5)) does the source give for “CTTACGCA (double strand) [8-mer CTTACGCA]” here?
Answer: The binding signal (PBM E-score (-0.5 to 0.5)) was 0.487.

Question: With “CTTACGTA (double strand) [8-mer CTTACGTA]” as the sequence, how does the binding signal (PBM E-score (-0.5 to 0.5)) read?
Answer: Its binding signal (PBM E-score (-0.5 to 0.5)) is 0.495.

Question: For “CTTGCGCA (double strand) [8-mer CTTGCGCA]”, which binding signal (PBM E-score (-0.5 to 0.5)) is on record?
Answer: The binding signal (PBM E-score (-0.5 to 0.5)) was 0.489.

Question: For “CTTGCGTA (double strand) [8-mer CTTGCGTA]”, which binding signal (PBM E-score (-0.5 to 0.5)) is on record?
Answer: The binding signal (PBM E-score (-0.5 to 0.5)) was 0.487.

Question: How did the binding signal (PBM E-score (-0.5 to 0.5)) turn out when “GTTACGTA (double strand) [8-mer GTTACGTA]” was run?
Answer: Its binding signal (PBM E-score (-0.5 to 0.5)) is 0.49.

Question: Which binding signal (PBM E-score (-0.5 to 0.5)) does the source give for “TACGTAAA (double strand) [8-mer TACGTAAA]” here?
Answer: The binding signal (PBM E-score (-0.5 to 0.5)) was 0.488.

These sequences were tested against T3, atf-6 (F45E6.2) (Caenorhabditis elegans) (UniProt Q20435).
T3 sequence: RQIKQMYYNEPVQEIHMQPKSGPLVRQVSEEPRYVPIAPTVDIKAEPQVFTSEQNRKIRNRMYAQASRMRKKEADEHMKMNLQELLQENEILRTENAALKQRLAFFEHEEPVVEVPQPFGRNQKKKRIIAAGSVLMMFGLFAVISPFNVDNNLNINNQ

Question: Which binding signal (PBM E-score (-0.5 to 0.5)) does the source give for “CTTACGTA (double strand) [8-mer CTTACGTA]” here?
Answer: Its binding signal (PBM E-score (-0.5 to 0.5)) is 0.456.

These sequences were tested against nhr-34 (F58G6.5) (Caenorhabditis elegans) (UniProt Q21006).
Sequence of nhr-34 (F58G6.5) (Caenorhabditis elegans) (Q21006 99-268): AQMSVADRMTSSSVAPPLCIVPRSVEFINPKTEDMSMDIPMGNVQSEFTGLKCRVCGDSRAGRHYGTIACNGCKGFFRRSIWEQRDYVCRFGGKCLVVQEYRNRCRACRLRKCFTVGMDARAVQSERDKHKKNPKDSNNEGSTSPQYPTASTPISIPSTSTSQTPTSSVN

Question: With “AAGATCAG (double strand) [8-mer AAGATCAG]” as the sequence, how does the binding signal (PBM E-score (-0.5 to 0.5)) read?
Answer: Its binding signal (PBM E-score (-0.5 to 0.5)) is 0.47.

Question: “AGATCAAC (double strand) [8-mer AGATCAAC]” was tested. Which binding signal (PBM E-score (-0.5 to 0.5)) did it give?
Answer: Its binding signal (PBM E-score (-0.5 to 0.5)) is 0.478.

Question: For “AGATCAAT (double strand) [8-mer AGATCAAT]”, which binding signal (PBM E-score (-0.5 to 0.5)) is on record?
Answer: The binding signal (PBM E-score (-0.5 to 0.5)) was 0.486.

Question: Which binding signal (PBM E-score (-0.5 to 0.5)) does the source give for “CAAGATCA (double strand) [8-mer CAAGATCA]” here?
Answer: Its binding signal (PBM E-score (-0.5 to 0.5)) is 0.474.

Question: With “CGAGATCA (double strand) [8-mer CGAGATCA]” as the sequence, how does the binding signal (PBM E-score (-0.5 to 0.5)) read?
Answer: The binding signal (PBM E-score (-0.5 to 0.5)) was 0.472.

Question: Which binding signal (PBM E-score (-0.5 to 0.5)) does the source give for “GAAGATCA (double strand) [8-mer GAAGATCA]” here?
Answer: Its binding signal (PBM E-score (-0.5 to 0.5)) is 0.466.

Question: For “GAGACCAA (double strand) [8-mer GAGACCAA]”, which binding signal (PBM E-score (-0.5 to 0.5)) is on record?
Answer: Its binding signal (PBM E-score (-0.5 to 0.5)) is 0.475.

Question: With “GAGATCAA (double strand) [8-mer GAGATCAA]” as the sequence, how does the binding signal (PBM E-score (-0.5 to 0.5)) read?
Answer: Its binding signal (PBM E-score (-0.5 to 0.5)) is 0.491.

Question: Which binding signal (PBM E-score (-0.5 to 0.5)) does the source give for “GAGTTCAA (double strand) [8-mer GAGTTCAA]” here?
Answer: Its binding signal (PBM E-score (-0.5 to 0.5)) is 0.471.

Question: With “GGAGATCA (double strand) [8-mer GGAGATCA]” as the sequence, how does the binding signal (PBM E-score (-0.5 to 0.5)) read?
Answer: Its binding signal (PBM E-score (-0.5 to 0.5)) is 0.473.

The sequences below were run against T4, daf-12 (F11A1.3) (Caenorhabditis elegans) (UniProt G5EFF5).
T4 sequence: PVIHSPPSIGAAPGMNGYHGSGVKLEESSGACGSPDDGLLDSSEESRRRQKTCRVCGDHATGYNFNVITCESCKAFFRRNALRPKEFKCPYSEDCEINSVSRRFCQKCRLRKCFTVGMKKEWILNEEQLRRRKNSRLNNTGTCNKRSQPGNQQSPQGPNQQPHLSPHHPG

Question: With “AAAGTGCA (double strand) [8-mer AAAGTGCA]” as the sequence, how does the binding signal (PBM E-score (-0.5 to 0.5)) read?
Answer: Its binding signal (PBM E-score (-0.5 to 0.5)) is 0.498.

Question: With “AAGTACAA (double strand) [8-mer AAGTACAA]” as the sequence, how does the binding signal (PBM E-score (-0.5 to 0.5)) read?
Answer: Its binding signal (PBM E-score (-0.5 to 0.5)) is 0.493.

Question: How did the binding signal (PBM E-score (-0.5 to 0.5)) turn out when “AAGTACAT (double strand) [8-mer AAGTACAT]” was run?
Answer: The binding signal (PBM E-score (-0.5 to 0.5)) was 0.495.

Question: Which binding signal (PBM E-score (-0.5 to 0.5)) does the source give for “AAGTGCAA (double strand) [8-mer AAGTGCAA]” here?
Answer: The binding signal (PBM E-score (-0.5 to 0.5)) was 0.496.

Question: With “AAGTGCAG (double strand) [8-mer AAGTGCAG]” as the sequence, how does the binding signal (PBM E-score (-0.5 to 0.5)) read?
Answer: The binding signal (PBM E-score (-0.5 to 0.5)) was 0.492.

The sequences below were run against T5, nhr-3 (H01A20.1) (Caenorhabditis elegans) (UniProt Q9XTJ4).
T5 sequence: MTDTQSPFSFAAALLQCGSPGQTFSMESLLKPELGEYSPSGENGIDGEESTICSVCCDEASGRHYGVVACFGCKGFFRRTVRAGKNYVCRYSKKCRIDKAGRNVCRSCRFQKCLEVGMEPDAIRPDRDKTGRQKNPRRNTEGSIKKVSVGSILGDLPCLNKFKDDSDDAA

Question: “AAGATCAG (double strand) [8-mer AAGATCAG]” was tested. Which binding signal (PBM E-score (-0.5 to 0.5)) did it give?
Answer: The binding signal (PBM E-score (-0.5 to 0.5)) was 0.466.

Question: How did the binding signal (PBM E-score (-0.5 to 0.5)) turn out when “AGATCAAC (double strand) [8-mer AGATCAAC]” was run?
Answer: The binding signal (PBM E-score (-0.5 to 0.5)) was 0.467.

Question: “AGATCAAT (double strand) [8-mer AGATCAAT]” was tested. Which binding signal (PBM E-score (-0.5 to 0.5)) did it give?
Answer: The binding signal (PBM E-score (-0.5 to 0.5)) was 0.473.

Question: Which binding signal (PBM E-score (-0.5 to 0.5)) does the source give for “GAGATCAA (double strand) [8-mer GAGATCAA]” here?
Answer: The binding signal (PBM E-score (-0.5 to 0.5)) was 0.46.

Each sequence was assayed against T6, nhr-46 (C45E5.6) (Caenorhabditis elegans) (UniProt Q95QR2).
T6 sequence: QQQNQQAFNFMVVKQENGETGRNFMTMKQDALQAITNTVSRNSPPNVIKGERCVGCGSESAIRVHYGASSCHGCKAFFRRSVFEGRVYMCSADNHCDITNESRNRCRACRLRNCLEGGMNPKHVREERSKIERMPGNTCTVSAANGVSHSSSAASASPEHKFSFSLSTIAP

Question: How did the binding signal (PBM E-score (-0.5 to 0.5)) turn out when “AGATCAAC (double strand) [8-mer AGATCAAC]” was run?
Answer: The binding signal (PBM E-score (-0.5 to 0.5)) was 0.483.

Question: How did the binding signal (PBM E-score (-0.5 to 0.5)) turn out when “AGATCAAT (double strand) [8-mer AGATCAAT]” was run?
Answer: The binding signal (PBM E-score (-0.5 to 0.5)) was 0.49.

Question: For “CAAGATCA (double strand) [8-mer CAAGATCA]”, which binding signal (PBM E-score (-0.5 to 0.5)) is on record?
Answer: Its binding signal (PBM E-score (-0.5 to 0.5)) is 0.463.

Question: Which binding signal (PBM E-score (-0.5 to 0.5)) does the source give for “CGAGATCA (double strand) [8-mer CGAGATCA]” here?
Answer: The binding signal (PBM E-score (-0.5 to 0.5)) was 0.46.

Question: For “GAAGATCA (double strand) [8-mer GAAGATCA]”, which binding signal (PBM E-score (-0.5 to 0.5)) is on record?
Answer: The binding signal (PBM E-score (-0.5 to 0.5)) was 0.466.

Question: How did the binding signal (PBM E-score (-0.5 to 0.5)) turn out when “GAGATCAA (double strand) [8-mer GAGATCAA]” was run?
Answer: Its binding signal (PBM E-score (-0.5 to 0.5)) is 0.495.
